In patent US20230122079A1:

How the values were obtained:
[1] = molecular target: recombinant IL12 (Peprotech) (human) (UniProt P29460); experiment: SPR; SPR binding to immobilized IL12; kinetics post-digest with Matriptase; ka near instrument detection limit
[2] = molecular target: recombinant IL12 (Peprotech) (human) (UniProt P29460); experiment: SPR; SPR binding to immobilized IL12; kinetics post-digest with Matriptase

recombinant IL12 (Peprotech) (human), sequence (P29460 23-328 limits assumed, chain 1 of 2): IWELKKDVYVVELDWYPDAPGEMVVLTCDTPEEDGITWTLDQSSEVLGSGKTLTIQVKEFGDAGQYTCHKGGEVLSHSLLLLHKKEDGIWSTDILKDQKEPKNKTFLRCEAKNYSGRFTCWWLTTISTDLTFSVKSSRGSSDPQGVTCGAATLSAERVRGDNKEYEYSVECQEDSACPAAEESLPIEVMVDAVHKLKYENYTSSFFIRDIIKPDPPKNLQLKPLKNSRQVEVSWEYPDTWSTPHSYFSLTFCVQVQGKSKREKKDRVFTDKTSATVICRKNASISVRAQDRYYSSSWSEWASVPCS
recombinant IL12 (Peprotech) (human), sequence (chain, as listed by the source limits assumed, chain 2 of 2): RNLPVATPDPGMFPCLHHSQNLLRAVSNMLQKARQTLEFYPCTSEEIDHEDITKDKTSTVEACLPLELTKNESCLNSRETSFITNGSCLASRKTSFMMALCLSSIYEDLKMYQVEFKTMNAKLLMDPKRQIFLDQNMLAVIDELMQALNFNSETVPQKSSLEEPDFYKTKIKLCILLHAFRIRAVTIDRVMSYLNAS

kon [1]	Kd [2]	koff [2]	Binder
8.65e+06 M⁻¹ s⁻¹	5.37 pM	4.68e-05 s⁻¹	v32910 digested with Matriptase (Fc fusion) SANAGGGGSGGGGSQVQLVESGGGVVQPGRSLRLSCAASGFTFSSYGMHWVRQAPGKGLEWVAFIRYDGSNKYYADSVKGRFTISRDNSKNTLYLQMNSLRAEDTAVYYCKTHGSHDNWGQGTMVTVSSGGGGSGGGSGGGSGGGGSGGGGSQSVLTQPPSVSGAPGQRVTISCSGSRSNIGSNTVKWYQQLPGTAPKLLIYYNDQRPSGVPDRFSGSKSGTSASLAITGLQAEDEADYYCQSYDRYTHPALLFGTGTKVTVL
4.19e+07 M⁻¹ s⁻¹	1.47 pM	6.48e-05 s⁻¹	v32909 digested with Matriptase (Fc fusion) chain 1: SANAGGGGSGGGGSQVQLVESGGGVVQPGRSLRLSCAASGFTFSSYGMHWVRQAPGKGLEWVAFIRYDGSNKYYADSVKGRFTISRDNSKNTLYLQMNSLRAEDTAVYYCKTHGSHDNWGQGTMVTVSSGGGGSMSGR chain 2: SANAGGGGSGGGGSQSVLTQPPSVSGAPGQRVTISCSGSRSNIGSNTVKWYQQLPGTAPKLLIYYNDQRPSGVPDRFSGSKSGTSASLAITGLQAEDEADYYCQSYDRYTHPALLFGTGTKVTVL
